Source: patent publication US20140134180A1 (E R SQUIBB AND SONS L L C, published 2014)

What was measured:
[1] = target: T1, human O8E, full length, on cells (human, UniProt Q7Z7D3 25-282); assay: titration of labelled antibody on O8E-transfected cells, sigmoidal dose response fit; bottom and top fixed for incomplete curve; qualitative ranking
T1 construct: also called B7H4; B7S1
T1 sequence: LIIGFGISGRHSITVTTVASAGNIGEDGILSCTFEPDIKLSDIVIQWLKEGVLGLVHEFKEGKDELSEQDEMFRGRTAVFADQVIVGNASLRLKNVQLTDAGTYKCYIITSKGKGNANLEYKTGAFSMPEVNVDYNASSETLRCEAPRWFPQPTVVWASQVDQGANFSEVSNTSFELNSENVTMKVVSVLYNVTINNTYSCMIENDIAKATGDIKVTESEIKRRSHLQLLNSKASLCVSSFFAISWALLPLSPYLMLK
Procedure: (§1) HEK cells were transfected with full length O8E using standard techniques and grown in RPMI media containing 10% fetal bovine serum (FBS). […] Millipore plates (MAFB NOB) were coated with 1% nonfat dry milk in water and stored a 4° C. overnight. The plates were washed three times with 0.2 ml of binding buffer. Fifty microliters of buffer alone was added to the maximum binding wells (total binding). Twenty-five microliters of buffer alone was added to the control wells (non-specific binding). Varying concentration of ¹²⁵I-anti-O8E antibody was added to all wells in a volume of 25 μl. (In some cases FITC labeled antibodies were used for the titration since unlabeled material was not available, binding may be compromised in these instances.) Varying concentrations of unlabeled antibody at 100 fold excess was added in a volume of 25 μl to control wells and 25 μl of O8E transfected CHO cells (2×10⁶ cells/ml) in binding buffer were added to all wells. The plates were incubated for 2 hours at 200 RPM on a shaker at 4° C. At the completion of the incubation the Millipore plates were washed three times with 0.2 ml of cold wash buffer (24 mM Tris pH 7.2, 500 mM NaCl, 2.7 mM KCl, 2 mM Glucose, 1 mM CaCl₂, 1 mM MgCl₂, 0.1% BSA.). The filters were removed and counted in a gamma counter. […]

[2] = target: T2, Penta-B7H4 ( for this construct); assay: ELISA: anti-mouse Fc coat, monoclonal anti-C9 (0.6 ug/ml), Penta-B7H4 titrated 4000 to 2.0 ng/ml, human antibody at 1 ug/ml; the value is a concentration of Penta-B7H4, not of antibody [panel B]
T2 construct: also called Penta-O8E; Penta-B7H4-C9
Procedure: An ELISA plate was coated with anti-mouse Fc, followed by monoclonal anti-C9 (0.6 ug/ml), then titrated Penta-B7H4 as indicated, then the human antibodies at 1 ug/ml.

[3] = target: T1, human O8E, full length, on cells; assay: titration of labelled antibody on O8E-transfected cells, sigmoidal dose response fit; qualitative ranking
Procedure: as §1

[4] = target: T1, human O8E, full length, on cells; assay: titration of labelled antibody on O8E-transfected cells, sigmoidal dose response fit; FITC-labelled antibody; qualitative ranking
Procedure: as §1

B1: 12E1 human monoclonal antibody (antibody, V domains shown)
VH: EVQLVESGGGLVQPGRSLRLSCVASGFTFDDYAMHWVRQAPGKGLEWVSGISWNSGSIGYADSVKGRFTISRDNAKNSLYLQMNSLRAEDTALYYCTKALYGSGSSDFYYYGMDVWGQGTTVAVSS
VL: EIVLTQSPATLSLSPGERATLSCRASQSVSSYLAWYQQKPGQAPRLLIYDASNRATGIPARFSGSGSGTDFTLTISSLEPEDFAVYYCQQRRTFGQGTKVEIK
notes: Human IgG from a hybridoma of mice carrying a human kappa transgene; also called 12E1.G9
B1 was tested, and the EC50 [1] was about 19.8 nM and the “EC50 (read off the curve)” value [2] was about 0.05 µg/mL.

B2: 13D12 human monoclonal antibody (antibody, V domains shown)
VH: QVQLQQWGAGLLKPSETLSLTCAVYGGSFSGYYWSWIRQPPGKGLEWIGKINHSGSTNYNPSLKSRVTISVDTSKNQFSLKLNSVTAADTAVYYCARELRYFENYYYGMDVWGQGTTVTVSS
VL: not shown
notes: Human IgG from a hybridoma of mice carrying a human kappa transgene; also called 13D12.G10
B2 gave an EC50 [3] of 0.746 nM.

B3: 2A7 human monoclonal antibody (antibody, V domains shown)
VH: EVQLVESGGGLIQPGGSLRLSCAASGFTVSSNYMNWVRQAPGKGLEWVSVIYGSGRTYYADSVKGRVTISRDNSKNTLYLQMNSLRAEDTAVYYCARDTYAMDVWGQGTTVTVSS
VL: not shown
notes: Human IgG from a hybridoma of mice carrying a human kappa transgene; Fitcylated for immunohistochemistry; also called 2A7.C11; 2A7/C11
B3 was tested, and the “EC50 (read off the curve)” value [2] was about 0.04 µg/mL.

B4: 1G11 human monoclonal antibody (antibody, V domains shown)
VH: QVQLQQWGAGLLKPSETLSLTCAVYGGSFSDYFWTWIRQPPGKGLEWIGEINHSGTTNYNPSLKSRVTISADTSKNQFSLRLSSVTAADTAVYYCARLSSWSNWAFEYWGQGTLVTVSS
VL: EIVLTQFPGTLSLSPGERATLSCRASQSVSSTYLAWYQQKPGQAPRVLIYGASRRATGIPDRFSGSGSGTDFTLTISRLEPEDFAVYYCQQYGSSPLTFGGGTKVEIK
notes: Human IgG from a hybridoma of mice carrying a human kappa transgene; also called 1G11.H11-FITC; 1G11.H1
Binder B4 has an EC50 [4] of 1.69 nM.
